Data as given in article PMC4403821.

B1: ORF74-Rluc8 [Kaposi's sarcoma-associated herpesvirus (KSHV)] / β-arrestin1-eYFP [not stated] (parent)
chain 1: MGDKGTRVFKKASPNGKLTVYLGKRDFVDHIDLVDPVDGVVLVDPEYLKERRVYVTLTCAFRYGREDLDVLGLTFRKDLFVANVQSFPPAPEDKKPLTRLQERLIKKLGEHAYPFTFEIPPNLPCSVTLQPGPEDTGKACGVDYEVKAFCAENLEEKIHKRNSVRLVIRKVQYAPERPGPQPTAETTRQFLMSDKPLHLEASLDKEIYYHGEPISVNVHVTNNTNKTVKKIKISVRQYADICLFNTAQYKCPVAMEEADDTVAPSSTFCKVYTLTPFLANNREKRGLALDGKLKHEDTNLASSTLLREGANREILGIIVSYKVKVKLVVSRGGLLGDLASSDVAVELPFTLMHPKPKEEPPHREVPENETPVDTNLIELDTNDDDIVFEDFARQRLKGMKDDKEEEEDGTGSPQLNNR
chain 2: MAAEDFLTIFLDDDESWNETLNMSGYDYSGNFSLEVSVCEMTTVVPYTWNVGILSLIFLINVLGNGLVTYIFCKHRSRAGAIDILLLGICLNSLCLSISLLAEVLMFLFPNIISTGLCRLEIFFYYLYVYLDIFSVVCVSLVRYLLVAYSTRSWPKKQSLGWVLTSAALLIALVLSGDACRHRSRVVDPVSKQAMCYENAGNMTADWRLHVRTVSVTAGFLLPLALLILFYALTWCVVRRTKLQARRKVRGVIVAVVLLFFVFCFPYHVLNLLDTLLRRRWIRDSCYTRGLINVGLAVTSLLQALYSAVVPLIYSCLGSLFRQRMYGLFQSLRQSFMSGATT

Variants of: B1
Assay: BRET
Conditions: with β-arrestin1-eYFP; 300 nM CXCL1 (black bar); vehicle bar ~1.00; parent: 1.14; read off a plot

Variant | response
chain 2 MAAEDFLTIFLDDDESWNETLNMSGYDYSGNFSLEVSVCEMTTVVPYTWNVGILSLIFLINVLGNGLVTYIFCKHRSRAGAIDILLLGICLNSLCLSISLLAEVLMFLFPNIISTGLCRLEIFFYYLYVYLDIFSVVCVSLVRYLLVAYSTRSWPKKQSLGWVLTSAALLIALVLSGDACRHRSRVVDPVSKQAMCYENAGNMTADWRLHVRTVSVTAGFLLPLALLILFYALTWCVVRRTKLQARRKVRGVIVAVVLLFFVFCFPYHVLNLLDTLLRRRWIRDSCYTRGLINVGLAVTSLLQALYSAVVPLIYACLGALFRQRMYGLFQALRQAFMAGAAA [chain 2 S315A S319A S331A S335A S338A T341A T342A] | 1 fold basal
